Reference: patent US12269859B2, “Synthetic immune receptors and methods of use thereof” (Angeles Therapeutics, Inc., priority 2016, dated 2025)

How the values were obtained:
[1] = tested on: RAJI cells; assay: Jurkat NFAT-GFP assay, coculture with RAJI cells; type: cell-based, human
Description: (B) Induction of NFAT promoter driven GFP expression. The control vector- and SIR-expressing Jurkat-NFAT-GFP cocultured for 4-24 hours with the target antigen-expressing cell line (described above) and their ability to bind to the target antigen is assayed by measuring induction of GFP expression using Flow Cytometry. Cellular supernatant is collected and assayed for the induction of cytokines (e.g., IL2).
Jurkat NFAT-GFP Assay For Synthetic Immune Receptors. The Jurkat-NFAT-GFP cells are engineered in such a way that the IL-2 promoter, which carries NFAT binding sites, is cloned upstream of the GFP gene. These cells have been used to study signaling via TCR and CAR. The different SIRs were stably expressed in Jurkat NFAT-GFP cells by lentiviral mediated gene transfer, followed by selection with puromycin. The SIR-expressing Jurkat-NFAT-GFP cells were cocultured with the target cells at E:T ratio of approximately 1:2 for approximately 4 hours to 18 hours. When the interaction between SIRs and their target antigen results in activation of the NFAT pathway, GFP expression is induced.
Induction of GFP expression by coculturing of Jurkat-NFAT-GFP cells expressing different SIR constructs and the different target cells was studied essentially as described previously (Wu, Roybal, Puchner, Onuffer, & Lim, 2015). GFP expression was monitored by FACS analysis. […] In panel B, Jurkat cells expressing SIR targeting CDH6 (Clone ID: 051716-J05), CD276 (Clone ID: 050516-Q06) and Her2/neu (Clone ID: 050516-I03) were incubated with SKOV3 (top) and […] (middle and bottom) cells, respectively. […] The Jurkat-NFAT-GFP cells were engineered to express different SIRs targeting other antigens and the experiment repeated upon coculture with the target cells expressing their respective target antigen. The Jurkat-NFAT-GFP (parental) cells were used as control. […] The names of different SIRs, their SEQ ID NOs, component antigen binding domains and TCR chains can be determined by reference to Tables 7A-7H. A SIR is considered positive in the assay in case the SIR expressing Jurkat-NFAT-GFP cells show greater % GFP positive cells when cultured with the target cell line as compared to parental Jurkat-NFAT-GFP cells. […] The signs +/−, +, 2+ etc. after the name of the cell lines indicate the relative degree of positivity on the Jurkat-NFAT-GFP assay as measured by the % GFP positive cells after culture of the SIR expressing Jurkat-NFAT-GFP cells with that cell line.

[2] = FACS detection of CARs and SIRs by Myc and Protein L staining (cell surface expression); type: cell-based, human; details: staining with APC-conjugated Protein-L, Jurkat-NFAT-GFP cells
Description: FACS analysis. Mouse Anti-Human c-Myc APC-conjugated Monoclonal Antibody (Catalog #IC3696A) was from R&D Systems (Minneapolis, MN). Biotinylated protein L was purchased from GeneScript (Piscataway, NJ), reconstituted in phosphate buffered saline (PBS) at 1 mg/ml and stored at 4° C. Streptavidin-APC (SA1005) was purchased from ThermoFisher Scientific.
For detection of CARs and SIRs using Myc staining, 1×10^6 cells were harvested and washed three times with 3 ml of ice-cold 1×PBS containing 4% bovine serum albumin (BSA) wash buffer. After wash, cells were resuspended in 0.1 ml of the ice-cold wash buffer containing 10 μl of APC-conjugated Myc antibody and incubated in dark for 1 hour followed by two washings with ice cold wash buffer.
For detection of CARs and SIRs using Protein L staining, 1×10^6 cells were harvested and washed three times with 3 ml of ice-cold 1×PBS containing 4% bovine serum albumin (BSA) wash buffer. After wash, cells were resuspended in 0.1 ml of the ice-cold wash buffer containing 1 μg of protein L at 4° C. for 1 hour. Cells were washed three times with ice-cold wash buffer, and then incubated (in the dark) with 10 μl of APC-conjugated streptavidin in 0.1 ml of the wash buffer for 30 minutes followed by two washings with ice cold wash buffer. FACS was done using FACSVerse analyzer from BD Biosciences.

[3] = GFP expression upon 18 hour co-culture with RAJI cells, Table 10B

Molecule	NFAT-GFP (%) ([1]; overnight co-culture with RAJI cells, Table 10C)	Prt-L-APC (%) [2] [%]	NFAT-GFP (%) [1, 3] [%]
11240 (protein) MALPVTALLLPLALLLHAARPDIVMTQSPATLSLSPGERATLSCRSSKSLQNVNGNTYLYWFQQKPGQSPQLLIYRMSNLNSGVPDRFSGSGSGTEFTLTISSLEPEDFAVYYCMQHLEYPITFGAGTKLEIKLEEQKLISEEDLGSGEDLKNVFPPEVAVFEPSKAEIAHTQKATLVCLATGFYPDHVELSWWVNGKEVHSGVCTDPQPLKEQPALNDSRYCLSSRLRVSATFWQNPRNHFRCQVQFYGLSENDEWTQDRAKPVTQIVSAEAWGRADCGITSASYHQGVLSATILYEILLGKATLYAVLVSALVLMAMVKRKDSRGRAKRSGSGATNFSLLKQAGDVEENPGPTSMDWIWRILFLVGAATGAHSFEEVQLVESGGGLVKPGGSLKLSCAASGYTFTSYVMHWVRQAPGKGLEWIGYINPYNDGTKYNEKFQGRVTISSDKSISTAYMELSSLRSEDTAMYYCARGTYYYGTRVFDYWGQGTLVTVSSTREQKLISEEDLGSGIQNPDPAVYQLRDSKSSDKSVCLFTDFDSQTNVSQSKDSDVYITDKCVLDMRSMDFKSNSAVAWSNKSDFACANAFNNSIIPEDTFFPSSDVPCDVKLVEKSFETDTNLNFQNLSVIGFRILLLKVAGFNLLMTLRLWSSRAKRSGSGVKQTLNFDLLKLAGDVESNPGPSRGHMTEYKPTVRLATRDDVPRAVRTLAAAFADYPATRHTVDPDRHIERVTELQELFLTRVGLDIGKVWVADDGAAVAVWTTPESVEAGAVFAEIGPRMAELSGSRLAAQQQMEGLLAPHRPKEPAWFLATVGVSPDHQGKGLGSAVVLPGVEAAERAGVPAFLETSAPRNLPFYERLGFTVTADVEVPEGPRTWCMTRKPGA	31.59		
10492 (protein) MALPVTALLLPLALLLHAARPDVVMTQSPSSLSASVGDRVTITCRASQDISKYLNWYQQKPGKAPKLLIYHTSRLHSGVPSRFSGSGSGTDFTLTISSLQPEDFATYYCQQGNTLPYTFGGGTKVEIKLEDLKNVFPPEVAVFCPSEAEISHTQKATLVCLATGFYPDHVELSWWVNGKEVHSGVSTDPQPLKEQPALNDSRYCLSSRLRVSATFWQNPRNHFRCQVQFYGLSENDEWTQDRAKPVTQIVSAEAWGRADCGFTSESYQQGVLSATILYEILLGKATLYAVLVSALVLMAMVKRKDSRGRAKRSGSGATNFSLLKQAGDVEENPGPTSMDWIWRILFLVGAATGAHSFEQVQLQESGPGLVKPSQTLSLTCTVSGVSLPDYGVSWIRQPPGKGLEWIGVIWGSETTYYNSALKSRVLISVDTSKNQVSLKLSSVTAADTAVYYCARHYYYGGSYAMDYWGQGTTVTVSSTRIQNPDPAVYQLRDCKSSDKSVCLFTDFDSQTNVSQSKDSDVYITDKTVLDMRSMDFKSNSAVAWSNKSDFACANAFNNSIIPEDTFFPSPESSCDVKLVEKSFETDTNLNFQNLSVIGFRILLLKVAGFNLLMTLRLWSS		8	2.48
10494 (protein) MALPVTALLLPLALLLHAARPDVVMTQSPSSLSASVGDRVTITCRASQDISKYLNWYQQKPGKAPKLLIYHTSRLHSGVPSRFSGSGSGTDFTLTISSLQPEDFATYYCQQGNTLPYTFGGGTKVEIKLEDLKNVFPPEVAVFEPSEAEISHTQKATLVCLATGFYPDHVELSWWVNGKEVHSGVSTDPQPLKEQPALNDSRYCLCSRLRVSATFWQNPRNHFRCQVQFYGLSENDEWTQDRAKPVTQIVSAEAWGRADCGFTSESYQQGVLSATILYEILLGKATLYAVLVSALVLMAMVKRKDSRGRAKRSGSGATNFSLLKQAGDVEENPGPTSMDWIWRILFLVGAATGAHSFEQVQLQESGPGLVKPSQTLSLTCTVSGVSLPDYGVSWIRQPPGKGLEWIGVIWGSETTYYNSALKSRVLISVDTSKNQVSLKLSSVTAADTAVYYCARHYYYGGSYAMDYWGQGTTVTVSSTRIQNPDPAVYQLRDSKSSDKSVCLFTDFDSQTNVSQSKDSDVYICDKTVLDMRSMDFKSNSAVAWSNKSDFACANAFNNSIIPEDTFFPSPESSCDVKLVEKSFETDTNLNFQNLSVIGFRILLLKVAGFNLLMTLRLWSS		7	0.9
10495 (protein) MALPVTALLLPLALLLHAARPDVVMTQSPSSLSASVGDRVTITCRASQDISKYLNWYQQKPGKAPKLLIYHTSRLHSGVPSRFSGSGSGTDFTLTISSLQPEDFATYYCQQGNTLPYTFGGGTKVEIKLEDLKNVFPPEVAVFEPCEAEISHTQKATLVCLATGFYPDHVELSWWVNGKEVHSGVSTDPQPLKEQPALNDSRYCLSSRLRVSATFWQNPRNHFRCQVQFYGLSENDEWTQDRAKPVTQIVSAEAWGRADCGFTSESYQQGVLSATILYEILLGKATLYAVLVSALVLMAMVKRKDSRGRAKRSGSGATNFSLLKQAGDVEENPGPTSMDWIWRILFLVGAATGAHSFEQVQLQESGPGLVKPSQTLSLTCTVSGVSLPDYGVSWIRQPPGKGLEWIGVIWGSETTYYNSALKSRVLISVDTSKNQVSLKLSSVTAADTAVYYCARHYYYGGSYAMDYWGQGTTVTVSSTRIQNPDPAVCQLRDSKSSDKSVCLFTDFDSQTNVSQSKDSDVYITDKTVLDMRSMDFKSNSAVAWSNKSDFACANAFNNSIIPEDTFFPSPESSCDVKLVEKSFETDTNLNFQNLSVIGFRILLLKVAGFNLLMTLRLWSS		0	1.99
10493 (protein) MALPVTALLLPLALLLHAARPDVVMTQSPSSLSASVGDRVTITCRASQDISKYLNWYQQKPGKAPKLLIYHTSRLHSGVPSRFSGSGSGTDFTLTISSLQPEDFATYYCQQGNTLPYTFGGGTKVEIKLEDLKNVFPPEVAVFEPSEAEISHTQKATLVCLATGFYPDHVELSWWVNGKEVHSGVSTCPQPLKEQPALNDSRYCLSSRLRVSATFWQNPRNHFRCQVQFYGLSENDEWTQDRAKPVTQIVSAEAWGRADCGFTSESYQQGVLSATILYEILLGKATLYAVLVSALVLMAMVKRKDSRGRAKRSGSGATNFSLLKQAGDVEENPGPTSMDWIWRILFLVGAATGAHSFEQVQLQESGPGLVKPSQTLSLTCTVSGVSLPDYGVSWIRQPPGKGLEWIGVIWGSETTYYNSALKSRVLISVDTSKNQVSLKLSSVTAADTAVYYCARHYYYGGSYAMDYWGQGTTVTVSSTRIQNPDPAVYQLRDSKSSDKSVCLFTDFDSQTNVSQSKDSDVYICDKTVLDMRSMDFKSNSAVAWSNKSDFACANAFNNSIIPEDTFFPSPESSCDVKLVEKSFETDTNLNFQNLSVIGFRILLLKVAGFNLLMTLRLWSS		9	1.35
